Key:
[1] = target: T1, FRAP-Tgase variant (thermostable variant of Streptomyces mobaraensis Tgase having a FRAP tetrapeptide at the N-terminal end)
T1 chain: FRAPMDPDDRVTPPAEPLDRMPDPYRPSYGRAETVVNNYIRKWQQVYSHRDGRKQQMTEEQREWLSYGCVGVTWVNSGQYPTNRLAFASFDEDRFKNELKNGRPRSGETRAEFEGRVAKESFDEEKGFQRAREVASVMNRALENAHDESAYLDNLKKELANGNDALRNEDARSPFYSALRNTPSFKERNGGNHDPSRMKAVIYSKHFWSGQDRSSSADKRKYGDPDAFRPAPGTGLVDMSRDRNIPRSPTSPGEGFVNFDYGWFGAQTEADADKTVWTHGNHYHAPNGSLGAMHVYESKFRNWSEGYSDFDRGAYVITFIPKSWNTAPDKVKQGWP

[2] = target: T2, Pro-Tgase variant (thermostable variant of Streptomyces mobaraensis Tgase in zymogen form)
T2 chain: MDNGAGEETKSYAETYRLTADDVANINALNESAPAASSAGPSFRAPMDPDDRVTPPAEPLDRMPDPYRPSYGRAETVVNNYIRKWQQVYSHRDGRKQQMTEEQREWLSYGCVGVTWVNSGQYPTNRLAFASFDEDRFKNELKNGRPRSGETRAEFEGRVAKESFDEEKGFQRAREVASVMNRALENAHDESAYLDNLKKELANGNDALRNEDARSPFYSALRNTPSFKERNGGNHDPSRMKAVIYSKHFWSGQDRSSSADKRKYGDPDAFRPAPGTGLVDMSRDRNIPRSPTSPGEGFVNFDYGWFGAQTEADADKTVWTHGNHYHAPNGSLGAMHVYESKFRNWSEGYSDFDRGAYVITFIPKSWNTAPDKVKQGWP

B1: Streptomyces mobaraensis transglutaminase-activating tripeptidyl aminopeptidase (SM-TAP), mature, catalytically active form (protein)
chain: QADIKDRILKIPGMKFVEEKPYQGYRYLVMTYRQPVDHRNPGKGTFEQRFTLLHKDTDRPTVFFTSGYNVSTNPSRSEPTRIVDGNQVSMEYRFFTPSRPQPADWSKLDIWQAASDQHRLYQALKPVYGKNWLATGGSKGGMTATYFRRFYPNDMNGTVAYVAPNDVNDKEDSAYDKFFQNVGDKACRTQLNSVQREALVRRDEIVARYEKWAKENGKTFKVVGSADKAYENVVLDLVWSFWQYHLQSDCASVPATKASTDELYKFIDDISGFDGYTDQGLERFTPYYYQAGTQLGAPTVKNPHLKGVLRYPGINQPRSYVPRDIPMTFRPGAMADVDRWVREDSRNMLFVYGQNDPWSGEPFRLGKGAAARHDYRFYAPGGNHGSNIAQLVADERAKATAEVLKWAGVAPQAVQKDEKAAKPLAPFDAKLDRVKNDKQSALRP
In the case of B1, the “proteolytic cleavage by soluble SM-TAP: UPLC-MS total area count of FRAP tetrapeptide, and N-terminal sequencing” value [1] is reported as “N-terminal peptide sequencing, performed as described in Example 2 above, confirmed that the FRAP tetrapeptide had been removed from the N-terminal end of the FRAP-Tgase variant (SEQ ID NO:5) resulting in a mature, catalytically active Tgase variant (SEQ ID NO:6)”, the “proteolytic digestion by SM-TAP immobilized on porous solid supports: UPLC-MS, colorimetric Tgase activity assay, N-terminal sequencing” value [1] is reported as “Activity assay results showed that SM-TAP retained protease activity when immobilized on all the porous solid supports shown in Table 2” and the “proteolytic digestion by co-immobilized TAMEP and SM-TAP: UPLC-MS FRAP tetrapeptide area counts, N-terminal sequencing” value [1] is reported as “Activity assay results showed that co-immobilized TAMEP and SM-TAP retained protease activity on all the porous solid supports set forth in Table 3 below”.

B2: Streptomyces mobaraensis transglutaminase-activating M4 metalloprotease (TAMEP), mature, catalytically active form (protein)
chain: GTGNSQHSGQVQIGTTKSGSSYQMNDTTRGGHKTYNLNHGSSGTGTLFTDSDDVWGNGTNSDPATAGVDAHYGAQLTWDYYKNVHGRNGIRGDGVGAYSRVHYGNNYVNAFWDDSCFCMTYGDGNGIPLTSIDVAAHEMTHGVTSATANLTYSGESGGLNEATSDMMATAVEFWANNPADPGDYLIGEKININGDGTPLRYMDKPSKDGASKDAWYSGLGGIDVHYSSGPANHWFYLASEGSGPKDIGGVHYDSPTSDGLPVTGVGRDNAAKIWFKALTERMQSNTDYKGARDATLWAAGELFGVNSDTYNNVANAWAAINVGPRASSGVSVTSPGDQTSIVNQAVSLQIKATGSTSGALTYSATGLPAGLSINASTGLISGTPTTTGTSNVTVTVKDSAGKTGSTSFKWTVNTTGGGSVFENTTQVAIPDAGAAVTSPIVVTRSGNGPSALKVDVNITHTYRGDLTIDLVAPNGKTWRLKNSDAWDSAADVSETYTVDASSVSANGTWKLKVQDVYSGDSGTIDKWRLTF
With B2 the “proteolytic cleavage by soluble TAMEP: UPLC-MS total ion counts of the cleaved pro-peptide, and N-terminal sequencing” value [2] was “N-terminal peptide sequencing, performed as described in Example 2 above, confirmed that the FRAP amino acid sequence was present on the N-terminal end of the catalytically active, not mature FRAP-Tgase variant (SEQ ID NO:5)”, the “proteolytic digestion by TAMEP immobilized on porous solid supports: UPLC-MS, colorimetric Tgase activity assay, N-terminal sequencing” value [2] was “Activity assay results showed that TAMEP retained protease activity when immobilized on all the porous solid supports shown in Table 2” and the “proteolytic digestion by co-immobilized TAMEP and SM-TAP: UPLC-MS FRAP tetrapeptide area counts” value [2] was “Activity assay results showed that co-immobilized TAMEP and SM-TAP retained protease activity on all the porous solid supports set forth in Table 3 below”.

Source: patent US20240093162
